B1: 3I14 fragment antigen-binding region (Fab) (Fab, V domains shown)
VH: QVQLLESGGGVVQPGRSLRLSCAASGFTFSNYGMHWVRQAPGKGLEWVAIISFDGSKKYYANSVKGRSTISRDNSKNTLSLQMNSLGPEDTALYYCAKLPSPYYFDSRFVWVAASAFHFWGQGILVTVSS
VL: NFMLTQPPSASGTPGQRVTISCSGSSSNIGGNTVHWFQQLPGTAPKLLIYTNSLRPSGVPDRFSGSKSGTSASLAISGLQSEDEADYYCAAWDDSLNGQVFGGGTKLTVL
B2: 3I14^D93N Fab (Fab, V domains shown)
VH: B1 VH
VL: LTQPPSASGTPGQRVTISCSGSSSNIGGNTVHWFQQLPGTAPKLLIYTNSLRPSGVPDRFSGSKSGTSASLAISGLQSEDEADYYCAAWDNSLNGQVFGGGTKLTVL

Target: T1, hemagglutinin H3 (A/Victoria/361/2011), trypsin-cleaved HA1/HA2 trimer for crystallization (Influenza A virus A/Victoria/361/2011 …, UniProt A0A097PF39, strain, N-linked glycans (a group 2-specific sugar at position 38 of HA1))
T1 construct: copies: 3 + 3
Assay: crystal structure
Conditions: both partners purified

Binder | binding result
B1 | binds
B2 | binds
